Assay results as given in patent US9988424 (DUKE UNIVERSITY, dated 2018).
Positions count from the first letter of the chain named.

Legend:
[1] = biological target: T1, AE.A244 gp120 delta 11 (HIV-1); test: ELISA
T1 construct: also called E.A244gp120Δ11; AE.A244 Δ11 gp120

[2] = biological target: AE.A244 V1V2 Tags (HIV-1); test: ELISA
[3] = biological target: T2, gp70 C.1086 V1/V2 (HIV-1 V1V2 on murine leukemia virus gp70); test: ELISA, OD405 at 10 ug/ml
T2 construct: also called C.gp70 1086C V1V2; C.1086gp70V1V2
T2 chain: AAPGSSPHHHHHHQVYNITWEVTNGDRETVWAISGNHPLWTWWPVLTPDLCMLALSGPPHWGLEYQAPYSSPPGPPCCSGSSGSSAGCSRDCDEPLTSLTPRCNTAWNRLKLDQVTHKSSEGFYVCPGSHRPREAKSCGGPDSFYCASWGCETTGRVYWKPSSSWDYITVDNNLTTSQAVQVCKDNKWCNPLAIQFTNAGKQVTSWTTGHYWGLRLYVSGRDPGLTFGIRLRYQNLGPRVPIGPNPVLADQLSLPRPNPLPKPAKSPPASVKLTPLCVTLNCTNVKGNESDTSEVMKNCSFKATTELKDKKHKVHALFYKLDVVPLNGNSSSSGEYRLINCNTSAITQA

[4] = biological target: B.con gp140CF; test: ELISA, OD405 at 10 ug/ml
[5] = biological target: C.CAP206 gp140CF.12 (HIV-1); test: ELISA, OD405 at 10 ug/ml
[6] = biological target: AE.con gp140CF; test: ELISA, OD405 at 10 ug/ml
[7] = biological target: T3, AE.97CNG2XF gp140CF (HIV-1); test: ELISA, OD405 at 10 ug/ml
T3 construct: also called E.97CNGX2F gp140CF

[8] = biological target: T4, C.1086 gp140; test: ELISA, OD405 at 10 ug/ml
T4 construct: also called C.1086gp140C

[9] = biological target: G.con gp140CF; test: ELISA, OD405 at 10 ug/ml
[10] = biological target: Con 6 gp120; test: ELISA, OD405 at 10 ug/ml
[11] = biological target: T5, gp70 B.CaseA2 V1/V2 (HIV-1 V1V2 on murine leukemia virus gp70); test: ELISA, OD405 at 10 ug/ml
T5 construct: also called B.gp70CaseA2 V1/V2; gp70 B.CaseAV1V2
T5 chain: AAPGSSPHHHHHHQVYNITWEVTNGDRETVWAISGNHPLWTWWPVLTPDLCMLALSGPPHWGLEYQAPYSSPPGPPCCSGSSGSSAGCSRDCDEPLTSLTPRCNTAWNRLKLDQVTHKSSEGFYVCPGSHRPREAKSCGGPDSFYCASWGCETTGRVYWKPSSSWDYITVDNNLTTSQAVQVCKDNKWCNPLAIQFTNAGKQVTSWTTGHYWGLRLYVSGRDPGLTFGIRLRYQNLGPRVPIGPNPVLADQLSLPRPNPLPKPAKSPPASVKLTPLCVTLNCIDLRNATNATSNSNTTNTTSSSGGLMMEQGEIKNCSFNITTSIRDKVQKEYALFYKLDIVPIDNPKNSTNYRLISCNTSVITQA

[12] = biological target: T6, B.HXB/BAL gp140CFI (HIV-1, UniProt P04578 33-680); test: ELISA, OD405 at 10 ug/ml
T6 construct: also called B.HxB/Ba gp140 CFI

[13] = biological target: B.040 gp140C; test: ELISA, OD405 at 10 ug/ml
[14] = biological target: T7, A.9004SS V1/V2 tags; test: ELISA, OD405 at 10 ug/ml
T7 V1V2 tags construct: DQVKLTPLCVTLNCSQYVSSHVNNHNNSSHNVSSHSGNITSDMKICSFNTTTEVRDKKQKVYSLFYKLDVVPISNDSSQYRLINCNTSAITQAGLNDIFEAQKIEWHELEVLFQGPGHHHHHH

[15] = biological target: T8, SIV CPZ US-1 gp140CF (SIVcpz); test: ELISA, OD405 at 10 ug/ml
T8 construct: also called US-1 SIVCPZ gp140CF
T8 chain: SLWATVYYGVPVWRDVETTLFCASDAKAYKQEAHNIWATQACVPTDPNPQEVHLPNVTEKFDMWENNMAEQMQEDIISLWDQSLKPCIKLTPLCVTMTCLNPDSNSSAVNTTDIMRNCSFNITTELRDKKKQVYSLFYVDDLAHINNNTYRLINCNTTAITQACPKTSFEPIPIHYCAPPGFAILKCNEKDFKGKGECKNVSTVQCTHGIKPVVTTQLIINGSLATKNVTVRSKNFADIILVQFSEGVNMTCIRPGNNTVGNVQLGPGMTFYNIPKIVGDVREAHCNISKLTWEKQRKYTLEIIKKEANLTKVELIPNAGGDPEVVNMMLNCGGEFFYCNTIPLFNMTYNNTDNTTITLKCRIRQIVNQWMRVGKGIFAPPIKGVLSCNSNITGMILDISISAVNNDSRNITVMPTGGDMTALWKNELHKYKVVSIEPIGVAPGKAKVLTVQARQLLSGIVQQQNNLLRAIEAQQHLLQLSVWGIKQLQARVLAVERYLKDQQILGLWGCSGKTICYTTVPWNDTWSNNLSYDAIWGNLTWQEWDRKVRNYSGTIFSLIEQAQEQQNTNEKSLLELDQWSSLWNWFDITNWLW

[16] = biological target: T9, C.1086 gp140; test: ELISA, OD405
T9 construct: also called C.1086gp140C

[17] = biological target: T2, gp70 C.1086 V1/V2; test: ELISA, OD405
[18] = biological target: T10, A.9004SS V1V2 Tags; test: ELISA, OD405
T10 Env construct: T7 V1V2 tags construct

[19] = biological target: B. 684-6 gp140C; test: ELISA, OD405
[20] = biological target: C.CAP206 gp140CF.12 (HIV-1); test: ELISA, OD405
[21] = biological target: T11, AE.con gp140CF; test: ELISA, OD405
T11 construct: also called AE.con.env03 gp140CF

[22] = biological target: T12, B.con gp140CF; test: ELISA, OD405
T12 construct: also called B.con.env03 gp140CF

[23] = biological target: B. 681-7 gp140C; test: ELISA, OD405
[24] = biological target: T3, AE.97CNG2XF gp140CF; test: ELISA, OD405
[25] = biological target: T13, B.62357 140C; test: ELISA, OD405
T13 construct: also called B.62357 gp140C

[26] = biological target: B.9021 gp140C (HIV-1); test: ELISA, OD405
[27] = biological target: T14, B.63521_V1V2 Tags; test: ELISA, OD405
T14 Env construct: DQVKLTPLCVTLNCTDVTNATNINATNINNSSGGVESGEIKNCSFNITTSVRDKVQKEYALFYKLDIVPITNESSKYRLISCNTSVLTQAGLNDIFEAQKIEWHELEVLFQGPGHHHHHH

[28] = biological target: Con 6 gp120; test: ELISA, OD405
[29] = biological target: B.040 gp140C; test: ELISA, OD405
[30] = biological target: T15, D.9009SA V1V2 Tags; test: ELISA, OD405
T15 Env construct: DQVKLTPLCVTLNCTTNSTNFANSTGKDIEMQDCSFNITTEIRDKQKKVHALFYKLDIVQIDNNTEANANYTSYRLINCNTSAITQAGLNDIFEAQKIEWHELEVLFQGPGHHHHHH

[31] = biological target: T16, B.Case A2 V1/V2 Tags; test: ELISA, OD405
T16 Env construct: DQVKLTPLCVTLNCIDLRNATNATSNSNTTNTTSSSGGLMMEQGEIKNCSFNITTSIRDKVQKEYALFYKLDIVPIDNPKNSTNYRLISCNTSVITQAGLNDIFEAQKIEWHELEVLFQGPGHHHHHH

[32] = biological target: T6, B.HXB/BAL gp140CFI; test: ELISA, OD405
[33] = biological target: B.63521 gp140C; test: ELISA, OD405
[34] = biological target: T17, G.con gp140CF; test: ELISA, OD405
T17 construct: also called G.con.env03 gp140CF

[35] = biological target: T8, SIV CPZ US-1 gp140CF; test: ELISA, OD405

B1: CH01 UA3 (antibody, V domains shown)
VH: EVQLVESGGGVVRPGGSLRLSCAASGFTFDDYGMSWVRQAPGKGLEWVSGINWNGGSTGYADSVKGRFTISRDNAKNSLYLQMNSLRAEDTALYHCARGTDYTIDDQGIHYYGSGTYWYFDLWGRGTLVTVSS
VL: not shown
- EC50 [1]: 9.3 nM
- EC50 [2]: 18 nM
- binding result [3]: no binding (tested: 10 ug/ml)
- binding result [4]: no binding (tested: 10 ug/ml)
- binding result [5]: no binding (tested: 10 ug/ml)
- binding result [6]: no binding (tested: 10 ug/ml)
- binding result [7]: no binding (tested: 10 ug/ml)
- binding result [8]: no binding (tested: 10 ug/ml)
- binding result [9]: no binding (tested: 10 ug/ml)
- binding result [10]: no binding (tested: 10 ug/ml)
- binding result [11]: no binding (tested: 10 ug/ml)
- binding result [12]: no binding (tested: 10 ug/ml)
- binding result [13]: no binding (tested: 10 ug/ml)
- binding result [14]: no binding (tested: 10 ug/ml)
- binding result [15]: no binding (tested: 10 ug/ml)

B2: CH01_RUA1 (antibody, V domains shown)
VH: B1 VH with H95Y, H110R, Y112Q, Y117F
VL: not shown
notes: also called CH01 UA 1; CH01_UA 1
- binding result [16]: no binding (tested: 10 ug/ml)
- binding result [17]: no binding (tested: 10 ug/ml)
- binding result [18]: no binding (tested: 10 ug/ml)
- binding result [19]: no binding (tested: 10 ug/ml)
- binding result [20]: no binding (tested: 10 ug/ml)
- binding result [21]: no binding (tested: 10 ug/ml)
- binding result [22]: no binding (tested: 10 ug/ml)
- binding result [23]: no binding (tested: 10 ug/ml)
- binding result [24]: no binding (tested: 10 ug/ml)
- binding result [25]: no binding (tested: 10 ug/ml)
- binding result [26]: no binding (tested: 10 ug/ml)
- binding result [27]: no binding (tested: 10 ug/ml)
- binding result [28]: no binding (tested: 10 ug/ml)
- binding result [29]: no binding (tested: 10 ug/ml)
- binding result [30]: no binding (tested: 10 ug/ml)
- binding result [31]: no binding (tested: 10 ug/ml)
- binding result [32]: no binding (tested: 10 ug/ml)
- binding result [33]: no binding (tested: 10 ug/ml)
- binding result [34]: no binding (tested: 10 ug/ml)
- binding result [35]: no binding (tested: 10 ug/ml)
